# Results as given in patent US20090221691A1 (UNIVERSITY OF ROCHESTER, published 2009).
# Where two headings read alike, the source gives them in different places.
# Assays:
# [1] = biological target: biotinylated Gβ1γ2 mutant Trp99Ala (rat) (UniProt P54311); assay: flow cytometry, dissociation of Fαi1 from immobilized b-β1γ2
# [2] = biological target: biotinylated Gβ1γ2 mutant Tyr145Ala (rat) (UniProt P54311); assay: as above
# [3] = biological target: biotinylated Gβ1γ2 mutant Asp186Ala (rat) (UniProt P54311); assay: as above
# [4] = biological target: biotinylated Gβ1γ2 mutant Arg314Ala (rat) (UniProt P54311); assay: as above
# Chain of biotinylated Gβ1γ2 mutant Arg314Ala (rat) (P54311 whole entry R314A, chain 1 of 2): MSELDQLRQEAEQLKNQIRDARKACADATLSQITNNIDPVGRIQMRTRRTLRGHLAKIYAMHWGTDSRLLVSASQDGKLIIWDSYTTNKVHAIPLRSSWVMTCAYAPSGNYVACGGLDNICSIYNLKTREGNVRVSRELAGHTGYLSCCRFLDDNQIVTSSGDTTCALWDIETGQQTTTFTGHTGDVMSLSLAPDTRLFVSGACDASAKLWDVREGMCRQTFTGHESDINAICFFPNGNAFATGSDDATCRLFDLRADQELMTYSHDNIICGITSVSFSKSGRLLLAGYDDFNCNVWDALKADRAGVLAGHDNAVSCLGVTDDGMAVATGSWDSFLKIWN
# Chain of biotinylated Gβ1γ2 mutant Arg314Ala (rat) (P63212 2-68, chain 2 of 2, further chain): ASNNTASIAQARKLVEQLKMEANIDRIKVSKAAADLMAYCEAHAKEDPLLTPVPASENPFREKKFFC
# [5] = biological target: biotinylated Gβ1γ2 mutant Trp332Ala (rat) (UniProt P54311); assay: as above
# Chain of biotinylated Gβ1γ2 mutant Trp332Ala (rat) (P54311 whole entry W332A, chain 1 of 2): as the sequence (P54311 whole entry R314A, chain 1 of 2) above, with A314R, W332A counted along it
# Chain of biotinylated Gβ1γ2 mutant Trp332Ala (rat) (P63212 2-68, chain 2 of 2, further chain): as the sequence (P63212 2-68, chain 2 of 2, further chain) above
# [6] = biological target: biotinylated Gβ1γ2 mutant Tyr59Ala (rat) (UniProt P54311); assay: as above
# Chain of biotinylated Gβ1γ2 mutant Tyr59Ala (rat) (P54311 whole entry Y59A, chain 1 of 2): as the sequence (P54311 whole entry R314A, chain 1 of 2) above, with Y59A, A314R counted along it
# Chain of biotinylated Gβ1γ2 mutant Tyr59Ala (rat) (P63212 2-68, chain 2 of 2, further chain): as the sequence (P63212 2-68, chain 2 of 2, further chain) above
# [7] = biological target: biotinylated Gβ1γ2, wild-type (BAP-rat Gβ1 with Gγ2) (rat) (UniProt P54311); assay: as above
# [8] = biological target: biotinylated Gβ1γ2 mutant Leu117Ala (rat) (UniProt P54311); assay: as above
# Chain of biotinylated Gβ1γ2 mutant Leu117Ala (rat) (P54311 whole entry L117A, chain 1 of 2): as the sequence (P54311 whole entry R314A, chain 1 of 2) above, with L117A, A314R counted along it
# Chain of biotinylated Gβ1γ2 mutant Leu117Ala (rat) (P63212 2-68, chain 2 of 2, further chain): as the sequence (P63212 2-68, chain 2 of 2, further chain) above
# [9] = biological target: biotinylated Gβ1γ2 mutant Met101Ala (rat) (UniProt P54311); assay: as above
# Chain of biotinylated Gβ1γ2 mutant Met101Ala (rat) (P54311 whole entry M101A, chain 1 of 2): as the sequence (P54311 whole entry R314A, chain 1 of 2) above, with M101A, A314R counted along it
# Chain of biotinylated Gβ1γ2 mutant Met101Ala (rat) (P63212 2-68, chain 2 of 2, further chain): as the sequence (P63212 2-68, chain 2 of 2, further chain) above
# [10] = biological target: biotinylated Gβ1γ2 mutant Asn230Ala (rat) (UniProt P54311); assay: as above
# Chain of biotinylated Gβ1γ2 mutant Asn230Ala (rat) (P54311 whole entry N230A, chain 1 of 2): as the sequence (P54311 whole entry R314A, chain 1 of 2) above, with N230A, A314R counted along it
# Chain of biotinylated Gβ1γ2 mutant Asn230Ala (rat) (P63212 2-68, chain 2 of 2, further chain): as the sequence (P63212 2-68, chain 2 of 2, further chain) above
# [11] = biological target: biotinylated Gβ1γ2 mutant Lys57Ala (rat) (UniProt P54311); assay: as above
# Chain of biotinylated Gβ1γ2 mutant Lys57Ala (rat) (P54311 whole entry K57A, chain 1 of 2): as the sequence (P54311 whole entry R314A, chain 1 of 2) above, with K57A, A314R counted along it
# Chain of biotinylated Gβ1γ2 mutant Lys57Ala (rat) (P63212 2-68, chain 2 of 2, further chain): as the sequence (P63212 2-68, chain 2 of 2, further chain) above
# [12] = biological target: biotinylated Gβ1γ2 mutant Met188Ala (rat) (UniProt P54311); assay: as above
# Chain of biotinylated Gβ1γ2 mutant Met188Ala (rat) (P54311 whole entry M188A, chain 1 of 2): as the sequence (P54311 whole entry R314A, chain 1 of 2) above, with M188A, A314R counted along it
# Chain of biotinylated Gβ1γ2 mutant Met188Ala (rat) (P63212 2-68, chain 2 of 2, further chain): as the sequence (P63212 2-68, chain 2 of 2, further chain) above
# [13] = biological target: biotinylated Gβ1γ2 mutant Trp99Ala (rat) (UniProt P54311); assay: phage ELISA, % of wild-type b-βγ
# [14] = biological target: biotinylated Gβ1γ2 mutant Tyr145Ala (rat) (UniProt P54311); assay: phage ELISA, % of wild-type b-βγ
# [15] = biological target: biotinylated Gβ1γ2 mutant Asp246Ser (rat) (UniProt P54311); assay: phage ELISA, % of wild-type b-βγ
# [16] = biological target: biotinylated Gβ1γ2 mutant Arg314Ala (rat) (UniProt P54311); assay: phage ELISA, % of wild-type b-βγ
# [17] = biological target: biotinylated Gβ1γ2 mutant Trp332Ala (rat) (UniProt P54311); assay: phage ELISA, % of wild-type b-βγ
# [18] = biological target: biotinylated Gβ1γ2 mutant His62Ala (rat) (UniProt P54311); assay: phage ELISA, % of wild-type b-βγ
# [19] = biological target: biotinylated Gβ1γ2 mutant Leu117Ala (rat) (UniProt P54311); assay: phage ELISA, % of wild-type b-βγ
# [20] = biological target: biotinylated Gβ1γ2 mutant Phe292Ala (rat) (UniProt P54311); assay: phage ELISA, % of wild-type b-βγ
# [21] = biological target: biotinylated Gβ1γ2 mutant Met101Ala (rat) (UniProt P54311); assay: phage ELISA, % of wild-type b-βγ
# [22] = biological target: biotinylated Gβ1γ2 mutant His311Ala (rat) (UniProt P54311); assay: phage ELISA, % of wild-type b-βγ
# [23] = biological target: biotinylated Gβ1γ2 mutant Asn230Ala (rat) (UniProt P54311); assay: phage ELISA, % of wild-type b-βγ
# [24] = biological target: biotinylated Gβ1γ2 mutant Lys57Ala (rat) (UniProt P54311); assay: phage ELISA, % of wild-type b-βγ
# [25] = biological target: biotinylated Gβ1γ2 mutant Met188Ala (rat) (UniProt P54311); assay: phage ELISA, % of wild-type b-βγ
# [26] = biological target: T1, biotinylated Gβ1γ2, wild-type (BAP-rat Gβ1 with Gγ2) (rat, UniProt P54311 1-340; P63212 2-68, biotin on the lysine acceptor residue of the BAP); assay: phage ELISA on immobilized b-βγ
# T1 construct: immobilized on streptavidin in the assays; also called b-βγ; b-Gβ1γ2; not shown: 20 amino acid biotin acceptor peptide (BAP) fused to the N-terminus
# T1 sequence (P54311 whole entry, chain 1 of 2, the tested form may be a part): as the sequence (P54311 whole entry R314A, chain 1 of 2) above, with A314R counted along it
# T1 sequence (P63212 2-68, chain 2 of 2): as the sequence (P63212 2-68, chain 2 of 2, further chain) above
# Procedure: Phage ELISA assays used to assess peptide binding to wild-type and mutant b-βγ were performed according to standard methods (Smrcka and Scott (2002) Methods Enzymol. 344:557-76). Briefly, 1 μg streptavidin was immobilized in the well of a […] overnight at 4° C. The wells were blocked with 100 μL of 2% bovine serum albumin (BSA) in Tris-buffered saline (TBS) for 1 hour at 4° C. followed by three washes of 1×TBS/0.5% TWEEN®. […] The wells were washed, followed by the addition of 1×10⁶ to 1×10¹⁰ phage particles and incubated at 4° C. for 3 hours. The wells were then washed six times with TBS/0.5% TWEEN® followed by addition of 40 μL of 1:5000 dilution of anti-M13 antibody (Pharmacia, Uppsala, Sweden) and incubated at room temperature for 1 hour. The wells were washed, followed by the addition of 40 μL of (2,2′-Azino-bis(3-ethylbenzthiazoline)-6-sulfonic acid (ABTS) and the […] reaction was monitored at 405 nm. Non-specific binding was subtracted for each reading.
# [27] = biological target: biotinylated Gβ1γ2 mutant Trp99Ala (rat) (UniProt P54311); assay: phage ELISA, % of wild-type b-βγ; remark: listed apart in the source
# [28] = biological target: biotinylated Gβ1γ2 mutant Tyr145Ala (rat) (UniProt P54311); assay: phage ELISA, % of wild-type b-βγ; remark: listed apart in the source
# [29] = biological target: biotinylated Gβ1γ2 mutant Asp246Ser (rat) (UniProt P54311); assay: phage ELISA, % of wild-type b-βγ; remark: listed apart in the source
# [30] = biological target: biotinylated Gβ1γ2 mutant Asp186Ala (rat) (UniProt P54311); assay: phage ELISA, % of wild-type b-βγ
# [31] = biological target: biotinylated Gβ1γ2 mutant Arg314Ala (rat) (UniProt P54311); assay: phage ELISA, % of wild-type b-βγ; remark: listed apart in the source
# [32] = biological target: biotinylated Gβ1γ2 mutant Trp332Ala (rat) (UniProt P54311); assay: phage ELISA, % of wild-type b-βγ; remark: listed apart in the source
# [33] = biological target: biotinylated Gβ1γ2 mutant Tyr59Ala (rat) (UniProt P54311); assay: phage ELISA, % of wild-type b-βγ
# [34] = biological target: biotinylated Gβ1γ2 mutant Leu117Ala (rat) (UniProt P54311); assay: phage ELISA, % of wild-type b-βγ; remark: listed apart in the source
# [35] = biological target: biotinylated Gβ1γ2 mutant Met101Ala (rat) (UniProt P54311); assay: phage ELISA, % of wild-type b-βγ; remark: listed apart in the source
# [36] = biological target: biotinylated Gβ1γ2 mutant His311Ala (rat) (UniProt P54311); assay: phage ELISA, % of wild-type b-βγ; remark: listed apart in the source
# [37] = biological target: biotinylated Gβ1γ2 mutant Asn230Ala (rat) (UniProt P54311); assay: phage ELISA, % of wild-type b-βγ; remark: listed apart in the source
# [38] = biological target: biotinylated Gβ1γ2 mutant Lys57Ala (rat) (UniProt P54311); assay: phage ELISA, % of wild-type b-βγ; remark: listed apart in the source
# [39] = biological target: biotinylated Gβ1γ2 mutant Met188Ala (rat) (UniProt P54311); assay: phage ELISA, % of wild-type b-βγ; remark: listed apart in the source
# Chain of Fluorescein-labeled Gαi1 (P10824 2-354): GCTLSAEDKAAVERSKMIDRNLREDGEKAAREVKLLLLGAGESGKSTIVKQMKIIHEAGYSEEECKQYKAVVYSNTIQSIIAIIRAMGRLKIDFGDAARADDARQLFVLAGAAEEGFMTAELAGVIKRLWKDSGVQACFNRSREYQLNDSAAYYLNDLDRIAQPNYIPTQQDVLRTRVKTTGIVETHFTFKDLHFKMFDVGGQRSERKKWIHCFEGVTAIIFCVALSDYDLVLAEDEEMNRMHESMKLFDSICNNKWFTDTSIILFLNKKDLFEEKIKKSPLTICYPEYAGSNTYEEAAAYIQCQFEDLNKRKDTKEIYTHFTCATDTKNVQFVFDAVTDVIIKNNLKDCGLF
# Chain of biotinylated Gβ1γ2 mutant Trp99Ala (rat) (P54311 whole entry W99A, chain 1 of 2): as the sequence (P54311 whole entry R314A, chain 1 of 2) above, with W99A, A314R counted along it
# Chain of biotinylated Gβ1γ2 mutant Trp99Ala (rat) (P63212 2-68, chain 2 of 2, further chain): as the sequence (P63212 2-68, chain 2 of 2, further chain) above
Molecule,binding result [26],% of Wild-Type Signal [27],% of Wild-Type Signal [28],% of Wild-Type Signal [29],% of Wild-Type Signal [30],% of Wild-Type Signal [31],% of Wild-Type Signal [32],% of Wild-Type Signal [33],% of Wild-Type Signal [34],% of Wild-Type Signal [35],% of Wild-Type Signal [36],% of Wild-Type Signal [37],% of Wild-Type Signal [38],% of Wild-Type Signal [39],further results
Fluorescein-labeled Gαi1,,,,,,,,,,,,,,,koff [1]: 0.0048 s⁻¹; koff [2]: 0.00258 s⁻¹; koff [3]: 0.00267 s⁻¹; koff [4]: 0.00197 s⁻¹; koff [5]: 0.00502 s⁻¹; koff [6]: 0.00302 s⁻¹; koff [7]: 0.00205 s⁻¹; koff [8]: 0.00602 s⁻¹; koff [9]: 0.0019 s⁻¹; koff [10]: 0.00247 s⁻¹; koff [11]: 0.0024 s⁻¹; koff [12]: 0.00203 s⁻¹
phage displaying SIGK peptide,,,,,,,,,,,,,,,% of Wild-Type Signal [13]: 66%; % of Wild-Type Signal [14]: 0.8%; % of Wild-Type Signal [15]: 66.5%; % of Wild-Type Signal [16]: 50.2%; % of Wild-Type Signal [17]: 7.1%; % of Wild-Type Signal [18]: 111%; % of Wild-Type Signal [19]: 2.1%; % of Wild-Type Signal [20]: 109%; % of Wild-Type Signal [21]: 32.2%; % of Wild-Type Signal [22]: 94.3%; % of Wild-Type Signal [23]: 22.4%; % of Wild-Type Signal [24]: 18.6%; % of Wild-Type Signal [25]: 2.5%
SIGKALFILGYPDYD [phage 3.14 (SIGKALFILGYPDYD)],binds,66%,0.8%,66.5%,14.4%,50.2%,7.1%,24.7%,2.1%,26.8%,93.4%,22.4%,18.6%,2.5%,
WCPPKAMTQLGIKAC (Group II) [phage C14 (WCPPKAMTQLGIKAC)],binds,10.1%,1.9%,6.3%,3.6%,3.9%,1.6%,3.6%,3.8%,1.1%,6.1%,60%,3%,9.9%,
LCSKAYLLLGQTC (Group I) [phage 2F (LCSKAYLLLGQTC)],binds,32.6%,0.1%,0.6%,2.4%,2.4%,-1.5%,-2%,2.1%,6%,23.6%,27.6%,-4.5%,8.5%,
SCEKRYGIEFCT (Group III) [phage C4 (SCEKRYGIEFCT)],binds,,,,,,,,,,,,,,
SCEKRYGIEFCT [phage C4 (…)],,67%,4.4%,35.8%,51.3%,1.4%,1.7%,7.6%,18.4%,61.2%,36.5%,11.5%,-0.2%,128%,
SCEKRLGVRSCT (Group III) [phage C5 (SCEKRLGVRSCT)],binds,39%,16.7%,56.3%,45.7%,76.5%,3.2%,73.8%,28.5%,47.8%,58.7%,33.5%,5.6%,97.2%,
WCPPKLEQWYDGCA (Group IV) [phage C2 (WCPPKLEQWYDGCA)],binds,-1%,4.5%,5.9%,267%,1.3%,4.7%,-1.7%,1.5%,157%,11.7%,0%,-1.2%,-0.7%,
SCKRTKAQILLAPCT (Group I; also called Cl) [phage C1 (SCKRTKAQILLAPCT)],binds,1.2%,88%,2.3%,1.4%,2.8%,-0.3%,0.3%,5.2%,70.5%,3%,19.8%,0.1%,4%,
SCGHGLKVQSTIGACA (Group II) [phage 3C (SCGHGLKVQSTIGACA)],binds,-0.5%,2.7%,2%,35%,8.3%,-0.3%,8.5%,10%,-4.2%,30.5%,4.1%,3.6%,-5.7%,
